Results: patent publication US20240301041A1 (Regeneron, published 2024)

How the values were obtained:
[1] = target: T1, Protein A (purified reagent) (Staphylococcus aureus, UniProt P38507 37-477); assay: SPR (Biacore), mAb captured by anti-human Fc, Protein A injected, 25 C
T1 construct: also called Protein A (Calbiochem, 539202-5 MG); Protein A reagent

[2] = target: T2, IgG binding protein (Protein A homolog SpsQ/SpsP) on MRSP S. pseudintermedius 88493 (Staphylococcus pseudintermedius); assay: ELISA, coated S. pseudintermedius 88493, antibody 4.82E-09 M
T2 construct: whole, on cells; also called MRSP Staphylococcus pseudintermedius 88493 (methicillin-resistant)

[3] = target: T3, Protein A on the surface of S. aureus Newman wild-type (Staphylococcus aureus (strain Newman), UniProt P38507 37-477); assay: ELISA, coated S. aureus Newman, antibody 3.09E-07 M
T3 construct: whole, on cells; also called S. aureus Newman WT; wild-type S. aureus expressing Protein A

[4] = target: T2, IgG binding protein (Protein A homolog …); assay: ELISA, coated S. pseudintermedius 88493, antibody 7.54E-11 M
[5] = target: T2, IgG binding protein (Protein A homolog …); assay: ELISA, coated S. pseudintermedius 88493, antibody 3.86E-08 M
[6] = target: T3, Protein A on the surface of S. aureus …; assay: ELISA, coated S. aureus Newman, antibody 4.82E-09 M
[7] = target: T4, IgG binding protein (Protein A homolog SpsQ/SpsP) on S. pseudintermedius AHDRCC 98200 (Staphylococcus pseudintermedius); assay: ELISA, coated S. pseudintermedius 98200, antibody 7.54E-11 M
T4 construct: whole, on cells; also called S. pseudintermedius 98200; Staphylococcus pseudintermedius AHDRCC 98200

[8] = target: T4, IgG binding protein (Protein A homolog …); assay: ELISA, coated S. pseudintermedius 98200, antibody 3.86E-08 M
[9] = target: T5, IgG binding protein (Protein A homolog SpsQ/SpsP) on S. intermedius 27369 (Staphylococcus intermedius); assay: ELISA, coated S. intermedius 27369, antibody 1.18E-12 M
T5 construct: whole, on cells; also called Staphylococcus intermedius 27369

[10] = target: T3, Protein A on the surface of S. aureus …; assay: ELISA on plate-coated S. aureus Newman WT
[11] = target: T5, IgG binding protein (Protein A homolog …); assay: ELISA, coated S. intermedius 27369, antibody 4.82E-09 M
[12] = target: T3, Protein A on the surface of S. aureus …; assay: ELISA, coated S. aureus Newman, antibody 6.03E-10 M
[13] = target: T2, IgG binding protein (Protein A homolog …); assay: ELISA, coated S. pseudintermedius 88493, antibody 9.42E-12 M
[14] = target: T3, Protein A on the surface of S. aureus …; assay: flow cytometry; blocking antibody 1 ug/mL, then Alexa-488 Fc fragment (competitor) on wild-type S. aureus
[15] = target: T5, IgG binding protein (Protein A homolog …); assay: ELISA, coated S. intermedius 27369, antibody 6.03E-10 M
[16] = target: T4, IgG binding protein (Protein A homolog …); assay: ELISA, coated S. pseudintermedius 98200, antibody 9.42E-12 M
[17] = target: T4, IgG binding protein (Protein A homolog …); assay: ELISA, coated S. pseudintermedius 98200, antibody 3.09E-07 M
[18] = target: T3, Protein A on the surface of S. aureus …; assay: ELISA, coated S. aureus Newman, antibody 3.86E-08 M
[19] = target: T3, Protein A on the surface of S. aureus …; assay: ELISA, coated S. aureus Newman, antibody 9.42E-12 M
[20] = target: T4, IgG binding protein (Protein A homolog …); assay: ELISA, coated S. pseudintermedius 98200, antibody 1.47E-13 M
[21] = target: T5, IgG binding protein (Protein A homolog …); assay: ELISA, coated S. intermedius 27369, antibody 7.54E-11 M
[22] = target: T1, Protein A (purified reagent); assay: SPR (Biacore), mAb captured by anti-human Fc, Protein A injected, 37 C
[23] = target: T2, IgG binding protein (Protein A homolog …); assay: ELISA, coated S. pseudintermedius 88493, antibody 3.09E-07 M
[24] = target: T3, Protein A on the surface of S. aureus …; assay: flow cytometry; blocking antibody 1 ug/mL, then Alexa-488 VH3 hIgG1*/* antibody (competitor) on wild-type S. aureus

B1: H1xH15140P*/* (anti-Protein A) (antibody, V domains shown)
VH: EVQLVESGGGLVQPGGSLTLSCTASGFSFSSYVMSWVRQSPGKGLEWVSAIGGSGTSTYYRDSVKGRFTISRDNSKNTLNLQMSSLRAEDTAVYYCARDGLGHRDYWGQGTLVTVSS
VL: DIQMTQSPSSVSASVGDRVTITCRASQGINSWLAWYQQKPGKAPKLLIYAASSLQSGVPSRFSGSGSGTDFTLTISSLQPEDFATYYCQQANSFPFTFGPGTKVDIK
notes: also called anti-Protein A hIgG1*/*; H1xH15140P*/*-L1
Work on B1 yielded a Kd [1] of 0.204 nM, a koff [1] of 7.78e-05 s⁻¹ and a kon [1] of 381000 M⁻¹ s⁻¹. For the same binder, the t½ [1] was 2.48 h, the ELISA luminescent signal [2] was 5970 and the ELISA luminescent signal [3] was 979000. It also gave an ELISA luminescent signal [4] of 5410, an ELISA luminescent signal [5] of 6360 and an ELISA luminescent signal [6] of 828000. It also gave an ELISA luminescent signal [7] of 4680, an ELISA luminescent signal [8] of 6680 and an ELISA luminescent signal [9] of 2460. It also gave an EC50 [10] of 0.0154 nM, an ELISA luminescent signal [11] of 3030 and an ELISA luminescent signal [12] of 647000. For the same binder, the ELISA luminescent signal [13] was 4270, the “Fc: S. aureus blocking activity (%)” value [14] was 78% and the ELISA luminescent signal [15] was 3340. The ELISA luminescent signal [16] was 2480, the ELISA luminescent signal [17] was 20600 and the ELISA luminescent signal [18] was 838000. For the same binder, the ELISA luminescent signal [19] was 60500, the ELISA luminescent signal [20] was 3940 and the ELISA luminescent signal [21] was 2660. For the same binder, the Kd [22] was 0.0986 nM, the koff [22] was 0.000117 s⁻¹ and the kon [22] was 1.19e+06 M⁻¹ s⁻¹. The t½ [22] was 1.65 h, the ELISA luminescent signal [23] was 10700 and the “VH3 antibody: S. aureus blocking activity (%)” value [24] was 84.5%.
